For experiment [1], the target named is human HLA-G expressed on cells (JEG3 cells, natural; SKOV3 cells transfected with recombinant HLA-G) (human) (UniProt P17693). As to the kind of experiment: flow cytometry on SKOV3 HLA-G cells (SKOV3 transfected with HLA-G); isotype control; detection with goat anti-human IgG (H+L) Alexa 488.
For experiment [2] the target is unchanged. In words: flow cytometry on JEG3 cells (natural HLA-G); isotype control; detection with goat anti-human IgG (H+L) Alexa 488.

For the substance Isotype (antibody), the MFI in experiment [1] turned out to be 78; in experiment [2], 57.

For the origin of these results see patent US20260265381A1.
